This is an account of results in patent publication EP4613763A1 (Chuang, Woei-jer, dated 2025).

First the molecules themselves.
B1: protein C7 (designed binder)
chain: VSDVPRDLEVVAATPTSLLISWRHPHFPTRYYRITYGETGGNSPVQEFTVPLQPPTATISGLKPGVDYTITVYAVTDGRNGRLLSIPISINYRT
B2: C7-SL1-His (designed binder, not shown: small tags and cut ends)
chain: B1 chain with L8C, S89C
modifications: Designed disulfide bond between Cys8 and Cys89.
notes: His-tagged C7 variant with one introduced disulfide bond
B3: C7-LL2-His (designed binder, not shown: small tags and cut ends)
chain: B1 chain with S17C, S60C
modifications: Designed disulfide bond between Cys17 and Cys60.
notes: as for B2
B4: C7-SL2-His (designed binder)
chain: B1 chain with T35C, V45C
modifications: Designed intramolecular disulfide bond Cys35-Cys45 (printed as T36/V46 in the Met-included numbering).
notes: His-tagged C7 variant with one introduced disulfide bond; not shown: N-terminal Met and C-terminal His tag of the expressed construct
B5: C7-LL4-His (designed binder, not shown: small tags and cut ends)
chain: B1 chain with K63C, V66C
modifications: Designed disulfide bond between Cys63 and Cys66.
notes: as for B2
B6: C7-SS1-His (designed binder, not shown: small tags and cut ends)
chain: B1 chain with L19C, T58C
modifications: Designed disulfide bond between Cys19 and Cys58.
notes: as for B2
B7: C7-SL1-LL2-His (designed binder, not shown: small tags and cut ends)
chain: B1 chain with L8C, S17C, S60C, S89C
modifications: Designed disulfide bonds Cys8-Cys89 and Cys17-Cys60.
notes: His-tagged C7 variant with two introduced disulfide bonds
B8: C7-LL3-His (designed binder, not shown: small tags and cut ends)
chain: B1 chain with T39C, D67C
modifications: Designed disulfide bond between Cys39 and Cys67.
notes: as for B2
B9: C7-SL3-His (designed binder)
chain: B1 chain with G37C, V45C
modifications: Designed intramolecular disulfide bond Cys37-Cys45 (printed as G38/V46 in the Met-included numbering).
notes: as for B4
B10: C7-SL4-His (designed binder, not shown: small tags and cut ends)
chain: B1 chain with D67C, N91C
modifications: Designed disulfide bond between Cys67 and Cys91.
notes: as for B2
B11: C7-SL1-LL3-His (designed binder, not shown: small tags and cut ends)
chain: B1 chain with L8C, T39C, D67C, S89C
modifications: Designed disulfide bonds Cys8-Cys89 and Cys39-Cys67.
notes: as for B7

Positions count from the first letter of the chain named.

In the assay the target is T1, vascular endothelial growth factor receptor 2 (UniProt P35968 20-764, limits assumed).
T1 construct: also called VEGFR2; kinase insert domain receptor
T1 sequence (P35968 20-764 limits assumed): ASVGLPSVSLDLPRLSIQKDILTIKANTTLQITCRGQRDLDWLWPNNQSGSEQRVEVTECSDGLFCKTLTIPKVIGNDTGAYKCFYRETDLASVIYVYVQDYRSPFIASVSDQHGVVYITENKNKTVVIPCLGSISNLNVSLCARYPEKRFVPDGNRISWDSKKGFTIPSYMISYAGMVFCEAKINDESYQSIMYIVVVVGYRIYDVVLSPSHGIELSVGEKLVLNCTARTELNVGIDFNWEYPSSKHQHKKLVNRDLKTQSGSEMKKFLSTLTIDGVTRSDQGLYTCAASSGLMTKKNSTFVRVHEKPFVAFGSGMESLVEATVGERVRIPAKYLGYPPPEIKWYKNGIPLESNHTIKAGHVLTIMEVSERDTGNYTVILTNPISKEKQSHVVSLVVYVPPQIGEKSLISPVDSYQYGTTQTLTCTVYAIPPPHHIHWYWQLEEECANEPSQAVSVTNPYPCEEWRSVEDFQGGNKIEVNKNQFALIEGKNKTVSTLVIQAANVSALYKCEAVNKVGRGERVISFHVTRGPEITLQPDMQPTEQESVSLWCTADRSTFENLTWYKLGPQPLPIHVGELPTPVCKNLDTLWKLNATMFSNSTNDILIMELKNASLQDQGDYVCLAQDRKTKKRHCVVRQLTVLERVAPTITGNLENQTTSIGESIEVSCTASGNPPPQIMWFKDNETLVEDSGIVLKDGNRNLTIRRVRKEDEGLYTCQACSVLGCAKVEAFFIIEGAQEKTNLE
The experiment in a line: ELISA, binding affinity to VEGFR2.
For the molecule B1, the IC50 turned out to be 16.8 nM.

Regarding B2, the 50% inhibitory concentration (IC50) came to 17.6 nM.

B3 gave a 50% inhibitory concentration (IC50) of 18.9 nM.

B4: the IC50 stood at 17.1 nM.

B5 displayed a half-maximal inhibitory concentration (IC50) of 16.6 nM.

For the molecule B6, the half-maximal inhibitory concentration (IC50) came to 17.5 nM.

B7 showed a half-inhibitory concentration (IC50) of 12.8 nM.

In turn, B8 returned an IC50 of 9.8 nM.

B9: the half-maximal inhibitory concentration (IC50) amounted to 21.3 nM.

For B10, the IC50 was 18.5 nM.

On to B11, for which the 50% inhibitory concentration (IC50) worked out at 19.2 nM.
